Positions count from the first letter of the chain named.
T1: Human TROP2 Protein, His Tag (Acro Biosystems) (human, UniProt P09758 27-274)
T1 construct: Bought protein; not shown: His tag
T1 sequence (looked up): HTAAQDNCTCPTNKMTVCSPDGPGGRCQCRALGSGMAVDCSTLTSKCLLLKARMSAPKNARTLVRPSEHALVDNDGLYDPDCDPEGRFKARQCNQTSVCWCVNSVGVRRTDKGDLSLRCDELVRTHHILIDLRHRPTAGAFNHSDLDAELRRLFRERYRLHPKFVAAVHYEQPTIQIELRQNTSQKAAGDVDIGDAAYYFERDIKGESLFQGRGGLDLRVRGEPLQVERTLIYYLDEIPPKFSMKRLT

T2: Human TROP2 Protein, His Tag (Acro Biosystems) (human, UniProt P09758 27-274)
T2 construct: Bought protein; also called TACSTD2; not shown: His tag
T2 sequence: T1 sequence (looked up)

B1: MYT11596 (antibody, V domains shown)
VH: QVQLQQSGSELKKPGASVKVSCKASGYTFTNYGMNWVKQAPGQGLKWMGWINTYTGEPTYTDDFKGRFAFSLDTSVSTAYLQISSLKADDTAVYFCARHGFGSSYWYFDVWGQGSLVTVSS
VL: DIQLTQSPSSLSASVGDRVSITCKASQDVSIAVAWYQQKPGKAPKLLIYSASYRYTGVPDRFSGSGSGTDFTLTISSLQPEDFAVYYCQQHYITPLTFGAGTKVEIK
B2: MYT11605 (antibody, V domains shown)
VH: B1 VH with H99G, F108H
VL: B1 VL
B3: MYT11613 (antibody, V domains shown)
VH: B1 VH with H99G
VL: B1 VL with V29H
notes: Sacituzumab variant, His at LCV position 29 (L1 06)
B4: MYT11607 (antibody, V domains shown)
VH: B1 VH with H99G, V110H
VL: B1 VL
notes: Sacituzumab variant, His at HCV position 110 (H3 14)
B5: MYT11608 (antibody, V domains shown)
VH: B1 VH with H99G
VL: B1 VL with K24H
notes: Sacituzumab variant, His at LCV position 24 (L1 01)
B6: MYT11611 (antibody, V domains shown)
VH: B1 VH with H99G
VL: B1 VL with Q27H
notes: Sacituzumab variant, His at LCV position 27 (L1 04)
B7: MYT11602 (antibody, V domains shown)
VH: B1 VH with H99G, Y105H
VL: B1 VL
B8: MYT11610 (antibody, V domains shown)
VH: B1 VH with H99G
VL: B1 VL with S26H
notes: Sacituzumab variant, His at LCV position 26 (L1 03)
B9: MYT11621 (antibody, V domains shown)
VH: B1 VH with H99G
VL: B1 VL with S52H
notes: Sacituzumab variant, His at LCV position 52 (L2 03)
B10: MYT11620 (antibody, V domains shown)
VH: B1 VH with H99G
VL: B1 VL with A51H
notes: Sacituzumab variant, His at LCV position 51 (L2 02)
B11: MYT11615 (antibody, V domains shown)
VH: B1 VH with H99G
VL: B1 VL with I31H
notes: Sacituzumab variant, His at LCV position 31 (L1 08)
B12: MYT11598 (antibody, V domains shown)
VH: B1 VH with H99G, F101H
VL: B1 VL
notes: Sacituzumab variant, His at HCV position 101 (H3 05)
B13: MYT11609 (antibody, V domains shown)
VH: B1 VH with H99G
VL: B1 VL with A25H
notes: Sacituzumab variant, His at LCV position 25 (L1 02)
B14: MYT11601 (antibody, V domains shown)
VH: B1 VH with H99G, S104H
VL: B1 VL
notes: Sacituzumab variant, His at HCV position 104 (H3 08)
B15: MYT11612 (antibody, V domains shown)
VH: B1 VH with H99G
VL: B1 VL with D28H
notes: Sacituzumab variant, His at LCV position 28 (L1 05)
B16: MYT11617 (antibody, V domains shown)
VH: B1 VH with H99G
VL: B1 VL with V33H
notes: Sacituzumab variant, His at LCV position 33 (L1 10)
B17: MYT12410 (hu7E6SVG variant, HCV substitutions at 33, 56) (antibody, V domains shown)
VH: QVQLQESGPGLVKPSETLSLTCTVSGGSISSYHVHWIRQPPGKGLEWIGVIWTSGHTDYNSALMGRVTISVDTSKNQFSLKLSSVTAADTAVYYCARDGDYDRYTMDYWGQGTLVTVSS
VL: DIVMTQSPDSLAVSLGERATINCRASKSVSTSGYSYMHWYQQKPGQPPKLLIYLASNLESGVPDRFSGSGSGTDFTLTISSLQAEDVAVYYCQHSRELPYTFGQGTKLEIK
B18: MYT12441 (hu7E6SVG variant, LCV substitutions at 59, 94 (Ala at 94)) (antibody, V domains shown)
VH: B17 VH with H33G, H56V
VL: B17 VL with E59H, H94A
notes: Full IgG in Expi293 supernatant
B19: MYT12437 (hu7E6SVG variant, HCV substitutions at 51, 103, 106) (antibody, V domains shown)
VH: B17 VH with H33G, I51H, H56V, R103H, M106H
VL: B17 VL
B20: MYT12436 (hu7E6SVG variant, HCV substitutions at 51, 56, 106) (antibody, V domains shown)
VH: B17 VH with H33G, I51H, M106H
VL: B17 VL
B21: MYT12438 (hu7E6SVG variant, HCV substitutions at 56, 103, 106) (antibody, V domains shown)
VH: B17 VH with H33G, R103H, M106H
VL: B17 VL
B22: MYT12444 (hu7E6SVG variant, LCV substitutions at 60, 93) (antibody, V domains shown)
VH: B17 VH with H33G, H56V
VL: B17 VL with S60H, Q93H
notes: as for B18
B23: MYT12422 (hu7E6SVG variant, HCV substitutions at 51, 106) (antibody, V domains shown)
VH: B17 VH with H33G, I51H, H56V, M106H
VL: B17 VL
B24: MYT12414 (hu7E6SVG variant, HCV substitutions at 34, 51) (antibody, V domains shown)
VH: B17 VH with H33G, V34H, I51H, H56V
VL: B17 VL
B25: MYT12435 (hu7E6SVG variant, HCV substitutions at 51, 56, 103) (antibody, V domains shown)
VH: B17 VH with H33G, I51H, R103H
VL: B17 VL
B26: MYT12432 (hu7E6SVG variant, HCV substitutions at 33, 56, 103) (antibody, V domains shown)
VH: B17 VH with R103H
VL: B17 VL
B27: MYT12430 (hu7E6SVG variant, HCV substitutions at 33, 51, 103) (antibody, V domains shown)
VH: B17 VH with I51H, H56V, R103H
VL: B17 VL
B28: MYT12428 (hu7E6SVG variant, HCV substitutions at 103, 106) (antibody, V domains shown)
VH: B17 VH with H33G, H56V, R103H, M106H
VL: B17 VL
B29: MYT12411 (hu7E6SVG variant, HCV substitutions at 33, 102) (antibody, V domains shown)
VH: B17 VH with H56V, D102H
VL: B17 VL
B30: MYT12427 (hu7E6SVG variant, HCV substitutions at 102, 106) (antibody, V domains shown)
VH: B17 VH with H33G, H56V, D102H, M106H
VL: B17 VL
B31: MYT12419 (hu7E6SVG variant, HCV substitutions at 51, 56) (antibody, V domains shown)
VH: B17 VH with H33G, I51H
VL: B17 VL
B32: MYT12418 (hu7E6SVG variant, HCV substitutions at 34, 106) (antibody, V domains shown)
VH: B17 VH with H33G, V34H, H56V, M106H
VL: B17 VL
B33: MYT12442 (hu7E6SVG variant, LCV substitutions at 59, 97) (antibody, V domains shown)
VH: B17 VH with H33G, H56V
VL: B17 VL with E59H, E97H
notes: as for B18
B34: MYT12426 (hu7E6SVG variant, HCV substitutions at 102, 103) (antibody, V domains shown)
VH: B17 VH with H33G, H56V, D102H, R103H
VL: B17 VL
B35: MYT12415 (hu7E6SVG variant, HCV substitutions at 34, 56) (antibody, V domains shown)
VH: B17 VH with H33G, V34H
VL: B17 VL
B36: MYT12443 (hu7E6SVG variant, LCV substitutions at 59, 101) (antibody, V domains shown)
VH: B17 VH with H33G, H56V
VL: B17 VL with E59H, T101H
notes: as for B18
B37: MYT12423 (hu7E6SVG variant, HCV substitutions at 56, 102) (antibody, V domains shown)
VH: B17 VH with H33G, D102H
VL: B17 VL

These binders were tested against T1, Human TROP2 Protein, His Tag (Acro …) (assay: BLI (Octet)).
Protocol: After allowing for four days of protein expression, cell culture supernatants were collected, quantified by SDS-PAGE analysis (DNS), and the pH dependence of the variant was evaluated using biolayer interferometry (BLI) on an Octet RED 96e instrument. Briefly, cell culture supernatants were diluted based on qualitative expression level of the variant determined by visual examination of SDS-PAGE gels, 5 μL of cell culture supernatant was diluted into 195 μL of 1×PBST, pH 7.4 for high expressors, 25 μL of cell culture supernatant was diluted into 175 μL of 1×PBST, pH 7.4 for medium expressors and 100 μL of cell culture supernatant was diluted into 100 μL of 1×PBST, pH 7.4 for low expressors for loading onto the sensor tips. The resulting diluted supernatants were then captured on an anti-human Fc sensor (Forte Bio). A baseline was established using 1×PBST (50 mM Potassium Phosphate Buffer+150 mM NaCl+0.05% Tween 20) pH 7.4, and the sensor was associated with 50 nM of TROP2 (Human TROP2 Protein, His Tag, Acro Biosystems) in 1×PBST pH 7.4 for 120 sec to generate an association curve. In the dissociation phase, the antibody-antigen complex on the sensor was exposed to 1×PBST pH 7.4 or pH 5.4, for 300 sec. Association and dissociation phase curves were examined for the starting ABPC antibody (with no substitutions) and each corresponding antibody variant at pH 5.4 and pH 7.4 to inform on two criteria: a) enhanced dissociation (i.e., higher koff values) at pH 5.4 due to histidine or alanine substitution compared to the starting ABPC, (with no substitutions), and b) reduced dissociation at pH 7.4 (i.e., lower koff values) compared to pH 5.4 in the antibody variant itself and with the starting ABPC (with no substitutions). […] It was also noted that while some mutations obliterated TROP2 binding, others were tolerated with little or n change in TROP2 binding kinetics.
B1: binds. B2: binds. B3: binds. B4: binds. B5: binds. B6: binds. B7: binds. B8: binds. B9: binds. B10: binds. B11: binds. B12: binds. B13: binds. B14: binds. B15: binds. B16: binds.

These binders were tested against T2, Human TROP2 Protein, His Tag (Acro …) (assay: BLI (Octet)).
B17: binds. B18: binds. B19: binds. B20: binds. B21: binds. B22: binds. B23: binds. B24: binds. B25: binds. B26: binds. B27: binds. B28: binds. B29: binds. B30: binds. B31: binds. B32: binds. B33: binds. B34: binds. B35: binds. B36: binds. B37: binds.

— US20260274985A1 (MYTHIC THERAPEUTICS, published 2026)
